This data set can be described thus: label from the status in PepcDB records.
As to “MKKVIGAATATVFGLGAFTTTATAETIVTADVLNVREKPTTESKVVEKVKNGEELKVINTEDGWSKIELNGKEVFVSSEFTKDIYHVTADLLNVRSESNTESKILGRLKKDDVIESTNQVKDGWLQFEYKGKTAYVNVSFLSSKAPIEKKADEKTKQVAKVQKSVKAKEEAKTQKITKAKETIKPKEEVKVQEVAKPKEEVKVQEVAKPKEEVKVQEVAKPKEEVKVQEVVKPKEEVKVQEVVKPKEEVKVQEVAKAKEEAKVQEIAKAKEEAKAQEIAKAKEEAKAQEIAKAKEEAKAQEIAKAKEEAKAQEIAKAKEEAKAQEIAKAKEEAKAQEIAKAKEEAKAQEIAKAKEEAKAQEIAKAKEEAKAQEIAKAKEEAKEREIAKAKEEAKAREIAKAKEEEKAREALKAKEESKNNVQSAKRELTVVATAYTADPSENGTYGGRVLTAMGHDLTANPNMRIIAVDPKVIPLGSKVWVEGYGEAIAGDTGSAIKGNRIDVLMGSKSKAMNWGRQTVKVKILLEHHHHHH”, the protein production result is recorded as “failed”.

On to “AHQYGVKSYIGIPRSYSHDRTDFMQSEQAEILYYDGKYEETVEFIRDFSKDNGLYDASPGSANSSIDKMMYATIAFEIYEALLTVPSYVIVPVGNGTTLAGIYHGFRRMYDEGVIDHLPRMVGVSTSGGNPIVDSWRHGYSRVVDLNPEEIRETSINEPLVSYRSFDGQDALSAIRETHGRAMYVSDEEMVYYSNLIYSAEGLNPLPASASAVAAIGHLKVKQDETVVSVITGRQI”, for which the protein production result was “failed”. In the case of “MTWLIISGLVVGALLGFVMQRTRFCLAGGFRDMYIQKSNKMFYALLIAISVQSIGLLLLTSTRLVEIPESTYPIIGTVIGSFIFGLGIIMAGGCATGTWYRAGEGLIGSWMALIAYAFTSAATKFGLLLPLMNGLNKPTNVNTSMSQTTGIPTWVFVIVLIVITLFFVVKTLRKPKFAVPKLKQKFTGIRHYLFEKKYHPFVAAIAVGLIALLAWPVSESTGRMYGLGITTPSANLVQFFVTGDLKLLDWGVFLVLGIFFGSYIAAKGAKEFKWRLPDKKTIRNSIIGGVLMGFGASVAGGCSIGNGLVETATMSWKGWIALASMILGAWTMSYFVFIRPMKKAQSQTSNTKVSSQTQTS” it was “failed”; in that of “SKEDTEITIQKIMDAVVDQLLRLGYDKMSYTTLSQQTGVSRTGISHHFPKKTDFTAALDGRIFKMFIEHLEFEKGLDAFSQSWIKALEDSEFLAILRLLFHHIVTSESAHEFAANGIDRLYKMVESQFGSGGDKELEWLIGRSLIQ”, “failed”. Regarding “MADFTLSKSLFSGKYRNASSTPGNIAYALFVLFCFWAGAQLLNLLVHAPGVYERLMQVQETGRPRVEIGLGVGTIFGLIPFLVGCLIFAVVALWLHWRHRRQ”, the protein production result is “failed”. In the case of “MSQKKTSSRSSSVDDPATQYAKEVHSGERVAGPDIRNACARHLRDLEEGPKRGLTWDLDAANKAIRFYRTVLKLNGGEFEGLPFELLPWQKFIVGSIFGWKSSDGYRRFRVVYVESGKGSGKSPLAAGVGLTGLIADNEARAEIYAAATKKDQAMILFRDAVAMVQQSPELTKRLVCSGTGQNIWNLAYLKSGSFFRPISSDDGQSGPRPHMALIDEVHEHKTNMVVEMMRAGTKSRKQALIFMITNSGSNKRGPCWEYHEYGSRVASGALTDDGFFAYICSLDEGDDPIQDESCWFKSNPSLQDADLPGMKYLREQVTEARGMPSKEAMVRRLNFCEWTGAESPWISWDVWSQAEERVPMSLLRNRPSVGGLDLSSTTDLTSFVLLFYPTYEDPHWRLLPYFWIPDHELDKREARDKVPYAAWIKSRDLETTPGRAISKLHVLRRLQTICDFFQVDKIAFDRWRIEDMRQLMSEYDITLPELVEFGQGFKDMGPAVDEFERRLLGMIEQQPEEEGGAAEFFDDALPAEAVESLRHDGNPVMTWCAGNAVIVSDPANNRKADKAKATGRIDGIIAAIMATGISGAVSSGSSGSSIYDEGVGV” it was “failed”; in that of “MQDILFDFISTYISLTEDEKNALLSLDLFRSVPKGTILLKEGQKSQESYFVLKGCIRIYYIIDGEEKTTAFYTEMDALTPPCVIHNAPSEYFISCIEDSILTVSNLEMEAEINSKFPKFELMCRMLSEELLAKQQIDFDAFKTSSPEQRYLNVLQNRPDLIQRVPQHQLASFLGIKPQSLSRLRARIVDKKS”, “not failed”.

For the sequence “MAKHRLDALLVERGLCPSRQQAQRLIRAGEVRVAQAIVDKPGSLVAEDAVIEVAAKPPYVSRGGEKLAKALATFPIALSDRICLDAGISTGGFTDCLLQAGASKVYGIDVGYGQVDWKIRTDPRVLLRERTNIRNLQPTDLYGSDDVWPDLAVADLSFISLTKVLLTLGQLLRSPRELILLVKPQFEVGREKVGKGGVVRDRKDHVTAIAQVLESAQGLGWHGQGLTWSPLLGPAGNVEYLLWLSEAETTWAGDRAAIEALTTEAIATLRAGLEHHHHHH”, the protein production entry is “not failed”. As to “MRNTILFGVSMILLANLCFGIMSAFVKITADYFSPMENVFYRSITMTLLLLLIYPFKPYRLKSYKQGGFKKLAFRVVVGGLAMLAFFYNIEKISLATATAFSQCAPIYTVLLSPLLLKEKLKRSTLISACIGIVGVVLISDPSVENVGPVEIFMGILSGIFVSLAYITLRDLREYYDKQAVILAFAFGMSLLGLVGMFIDIPFLSTGIHVPRKEDILWISLIGISGTLGQYFLTYAYMNAPAGIIAPIEYTRIVWGLLFGLYLGDTFLDLKSSLGVALILCSGLLIALPALLKELKKI”, the protein production entry is reported as “failed”. Consider “MEVRGYKTEVALGKSSNSLLAGGLERRWQRLSGGCLGLLLMLPAVAAAAVYVPNAGQAMRDIQATQPALPEQPAPELDLPAKPPSAPAQAPDTSGIRLQVNDFVIVGNQVFSNETLQALLADLKGQELDLNQLRAAAERLTTYYQNQGYMLARAFLPAQDIEDGVVRIEVMEGRYGRIQVNNQSRALNSVITGPLSSLHSDTAVRSEDLERSLLLLSDLPGVRVKGTLSAGEQRGTTDLLVNAQPGPWASGTLEADNFGGYYTGEYRLGGSLNLNNPLRLGDQFNLRLLGSDEDQRYYRAAYKLPLGPWSTSVGVAYSRMNYELSRDFEVLEAHGQASIGSVFITQPLIRSRTFDLSAQLQYEDKRLRDDIDLFEVSSQKHVELWSLSLNGNSQDSLLGGGQNFFYLTYGSGRLSIDDPMDQWRDHFTAGTNGGFQKLNLNAARLQYLSPRFQLYGQFNGQWSSTNLDSSEKFGIGGPFDVRAYPQGTSSGDQGWQASLELRFLLAPRWQLKAFVDHGAVQVNKSPWIHDENRRQLSGAGVGASWSGPSQQISVTSAWALDNNQEGSGPERTPRIWASATQYF”, for which the protein production entry is “failed”. As for “MSNIIVLSGSPRKGGNTDLLVDAFVKGAEKSNNVEVVSVAYYKVNPCIGCNSCFDRAGHECFQQDDMQIVYDKLKCADVIVVASPVYFYGVSAQLKAIIDRLHTPMRNDFKVKKLALILVGAAVLPELFDSIKIQYQLVLNFFKLEDAGMVLVRGAKDKGDVRNTDGLDEAYRLGLAME”, the protein production entry is “failed”.

“MHRFFATRTSRIISVVLSLTFLAGCSLSEIDRIERQTKDSGEIARRISDTNRAKAQPAVRWMDKPWVSLKPLAPVVANPEEKILPPCQITINRPDGMNLPELGQRITGLCGPRVTITPDAFLVLSPANVRSGTSQQMPGSLPAPDGHGRVSLPYLGAQSPSASVMKQSDKHISTLKWQGDLPGLLDTIGSRLGLSWRVNKGNIVFYQLDTRMFQLVILNTKISSSASVTSGSSSSIGSSGGTNSGVSGESSSAQKTSVDLNSDLYGDIKKTIENMLTPSKGRFWLSSASGTLTVTDTPETLERIGRYIDYQNELLNRQVQLNVQVLSVTQSRKEQFGLDWKLVYQSLNNIGASVTGNLINAADNAFSGGLSILDTATGPAAKFSGSELLIKALSQQGNVSLVTELNRATINLTPVPFQISDQTGYIQSSSTTATANAGTTSSMQTGIITTGLFMSMLPYIQENGDVQLQFAFTLSDKPTIQPFFSRDGNTRTDTPAFKLRSLTQTVNMRAGQTLVLTGADQLDSVANKQGAFTPGNFLFGGGHVGSDTRTTLVILITPVLLR”: the protein production result is on record as “failed”.

Take “MMKSLGSIRRSFAPWADPASKPFISVKNVTKKFGDFTAVDDLSLNIYTREFFALLGASGCGKSTLLRMLAGFEQPTSGEIILDGQSLAGIPPYRRPVNMMFQSYALFPHMTVENNVAFGLKQDGMPKADIAERVAQMLKLVKLEKFAKRKPHQLSGGQRQRVALARSLAKRPKVLLLDEPLGALDKKLREETQFELMDLQQELGLTFVVVTHDQEEAMTMADRIAVMSHGKVVQVATPAEIYEAPNSRFVADFIGDVNIFDGKVTSAEDGYIRVETTGGIPVRMASPEKPGNGAKAAVAIRPEKIRIGRQPPAHAPVNAAEGEIWDIGYLGDMTVFHIRLKDGKVVKASSLNAVRAVEDPLGYDQQVWISFGDDAGVVLKD”: the protein production result is on record as “failed”. In the case of “MGHHHHHHSHMKLVTRSCDPGEKLDSKIGVLIGKGLHEFDSLKDPEVNEFRRKMRKFSEEKILSLVGLSWMDWLKQTYPPEHEPSIPENLEDKLYGGKLIVAVHFENCQDVFSFQVSPNMNPIKVNELAIQKRLTIHGKEDEVSPYDYVLQVSGRVEYVFGDHPLIQFQYIRNCVMNRALPHFILVECCKIKK” it was “failed”. In the case of “YCKTIPMPDLAYSEISVIGKLIRALPEPCALHLANSSTVRYAQLFTVPPQVEICCNRGVNGIEGSLSTAIGYAAASSKLNFIIIGDLSFFYDMNALWNQNYGANIRILLLNNEGGEIFHTLPGMDKSSRSREFITAEHYTTAKGWAEERGFIYMKVTGEEELEEAMQPFTSPETRMQPMLLEVFTDKEKDTTLLREYYHGLKNKNE” it was “failed”.

On to “MGLGRQSLNIMTFSGQELTAIIKMAKSMVMADGKIKPAEIAVMTREFMRFGILQDQVDLLLKASDSIEASQAVALIARMDEERKKYVASYLGVIMASDGDIDDNELALWTLISTLCGLPTMTVMEAINNMKNL”, for which the protein production result is “not failed”. In the case of “MNERPATIEELICAAEARLRADPTQVKTVIEDLAHLEAQGYPAGPATVLIFDGNARVMSGDFAGARPVLEKGLALSTELEEPTLQVRALTGLAVLHVGTGAYGQALEYHMQSMQLARTLENGGLLSRSLIYVGSLYAALRNFEQAQAYHREAVEHAASAGRSTFMARLALATDEAQLGHLEEALQQRRELLVEARQTASRAEEAFVLADLAANLLQLDQRAEARQLASEALKRAEALGLQLEKGQALIILASLDIREGQFESAHQALHEVLEIGQRLASIQLLIPVHEELSRLFEQQGDFAGALRHTRVHYELKSSELTRLAERRSQVLEAELKVELLRQQAEEKERQNLALVAINEHLRETQKRLQYAATHDALTGLLVRTALEETVEDDLLLSPERRRALFMIDVDHFKQINDALGHHVGDRFLQELARRLRGALRPTDIVARQGGDEFTIYLRELDSPEEAVALGQQLLRDIAAPVQVEGHLLNVTVSIGIAVYPDDGRDVMTLEKHADLALYRAKEQRHQVCRFQKPAD” it was “failed”.

“PLNRLGHKIYQHSGKWLQETAAEKLNQRDQLINPGHAQVLILGMGRIGTGAYDELRARYGKISLGIEIREEAAQQHRSEGRNVISGDATDPDFWERILDTGHVKLVLLAMPHHQGNQTALEQLQRRNYKGQIAAIAEYPDQLEGLLESGVDAAFNIYSEAGSGFARHVCKQLEPQFTSIK”: the protein production result is reported as “not failed”.

For “MSITERFFYLEKEPCVIYLPEKPNGFSVMLLGDYNYFIENGTSLWTQHTGRSYFLHGLIEEGYTVFSSNLYGRHWGNDQSVRLAKRLYDVVLRKETLNAKMHIMADGMGALVALEMMNKYPECIRSVIMLNPCLDLPEYVEFEKEHKFFYKRLLKELSLAYDAKEEELEA”, the protein production result is given as “failed”.

For “MELLKIDCLGKSLRLEGSLAGWQLLFWDNNLVSQKAASVDNGGLKVHQFELTQHHSQLASDSGEAQVLENKILVRLETDVVWQPFRFDYRLLVDEEVIAQGTRTEKDIERQMPEIPVTAPQKFSFVGLASLGFKLLKSAKVIKVVLAGASVAAYSWLFSFQFALALIACLVFHEYGHIRAMKYFGMKTKGIYLIPFMGGLALSDEKINTRWQDVVISIMGPTFGLLMSVGSLIAYHFTDNIFFAGLAAFNALLNLFNLLPILPLDGGHILKSISFSMNSIMGLIACVIGAAFGVYISYTLGLALLGFLLLIGSLEIVFEWRSRHQSHLLPLDRYGQIFSTIWYLATVAALVGIIWHLAGTGDDMLSLPLQILRS”, the protein production entry is “failed”.

Values taken from a protein production outcome set (Wang et al. 2014).
